This is an account of results in PMC2897767, “Two Distinct Mechanisms for Actin Capping Protein Regulation—Steric and Allosteric Inhibition” (PLoS Biology, 2010).

Holding throughout (details): both partners purified
For test [1], the target named is T1, actin capping protein (CP), chicken α1/β1, CP_full (chicken, UniProt P13127 1-286; P14315 1-277). Nature of the test: SPR; as a1, but koff >0.1 s^-1: amount of bound CP at the steady state plotted against the concentration of CP (Michaelis-Menten plots under saturated binding conditions).
Another test concerns the target CP (β) D44N (chicken, UniProt P13127 1-286; P14315 1-277, D44N). The test is described as above.
Another test has as its target CP (β) D63N (chicken, UniProt P13127 1-286; P14315 1-277, D63N). The description is as above.
For another test, the target named is CP (β) D67N (chicken, UniProt P13127 1-286; P14315 1-277, D67N). Described as above.
A further test deals with CP (β) Y64F (chicken, UniProt P13127 1-286; P14315 1-277, Y64F). Nature of the test: SPR; GST-fusion protein (GST-V-1, GST-CA or GST-CD) immobilised on a CM5 chip via anti-GST antibodies (up to 200 RU), CP perfused at 20 µl/min; 20°C; 50 mM KCl, 1 mM MgCl2, 0.005% Tween-20, 10 mM imidazole pH 7.0; 1:1 fit, KD from the kinetic rate constants (steady state for several fast-dissociating mutants).

Test [2] concerns the target T1, actin capping protein (CP), chicken …. The test is described as above.
Test [3] shares this target. Nature of the test: SPR; competition: GST-CA92 immobilised, perfused with 50 nM wild type CP pre-mixed with various concentrations of CARMIL peptides (CA21 up to 500 nM). For orientation: SPR reads the build-up and loss of mass on a sensor chip optically.
The target in test [4] is CPβΔC (chicken α1 full/β1 1–244; a deletion mutant CP lacking the β-tentacle) (chicken, UniProt P13127 1-286; P14315 1-244). Nature of the test: crystal structure; complexes formed with 1.2–2.0-fold molar excess of V-1 or peptide and purified by gel filtration; hanging-drop vapor diffusion at 20°C; molecular replacement. (Size exclusion chromatography separates by hydrodynamic size, large species first.)

Some results are limits rather than exact numbers.

B1: GST-CA55 (domain or fragment)
chain: FPSVRQEKRSSGLISELPSEEGRRLEHFTKLRPKRNKKQQPTQAAVCTISILPQD
notes: CARMIL, mouse, residues 962–1016
With B1, in test [1], the Kd (as a rule, the constant that tells how readily two partners part at equilibrium) amounted to 4000 nM and the koff (commonly the first-order rate constant of dissociation) was above 0.1 s⁻¹.

B2: GST-CA92 (domain or fragment)
chain: FPSVRQEKRSSGLISELPSEEGRRLEHFTKLRPKRNKKQQPTQAAVCTISILPQDGEQNGLMGRVDEGVDEFFTKKVTKMDCKRSSSRSSDA
notes: CARMIL, mouse, residues 962–1053
As to B2, the Kd amounted to 7400 nM with CP (β) D44N; 1400 nM in the test with CP (β) D63N; 4900 nM in the test with CP (β) D67N; 10 nM with CP (β) Y64F; 3.3 nM in test [2]. For the same molecule, the koff was above 0.1 s⁻¹ with CP (β) D44N; above 0.1 s⁻¹ with CP (β) D63N; above 0.1 s⁻¹ with CP (β) D67N; 0.0046 s⁻¹ with CP (β) Y64F; 0.0052 s⁻¹ in test [2]. Also, the kon – broadly, a measure of how fast the partners come together – in the test with CP (β) Y64F came out at 460000 M⁻¹ s⁻¹; in test [2], 1.6e+06 M⁻¹ s⁻¹.

B3: GST-CA76 (domain or fragment)
chain: FPSVRQEKRSSGLISELPSEEGRRLEHFTKLRPKRNKKQQPTQAAVCTISILPQDGEQNGLMGRVDEGVDEFFTKK
notes: CARMIL, mouse, residues 962–1037
With B3, in test [2], the affinity, expressed as Kd, was 80 nM; the koff is 0.019 s⁻¹; the kon came out at 230000 M⁻¹ s⁻¹.

B4: GST-CD47 (domain or fragment)
chain: FDSLTVRTSKETDVVNFDDIASSENLLHLTANRPKMPGRRLPGRFNG
notes: CD2AP, human, residues 461–507; cloned into pGEX-6P-1
In the case of B4, in test [2], binding was characterised by a dissociation constant (Kd) of 18 nM, the koff stood at 0.029 s⁻¹ and the kon is 1.6e+06 M⁻¹ s⁻¹.

B5: GST-CA63 (domain or fragment)
chain: FPSVRQEKRSSGLISELPSEEGRRLEHFTKLRPKRNKKQQPTQAAVCTISILPQDGEQNGLMG
notes: CARMIL, mouse, residues 962–1024
In test [1], B5 showed a Kd of 3300 nM and a koff above 0.1 s⁻¹.

B6: GST-CD44 (domain or fragment)
chain: FDSLTVRTSKETDVVNFDDIASSENLLHLTANRPKMPGRRLPGR
notes: CD2AP, human, residues 461–504; cloned into pGEX-6P-1
With B6, in test [2], the Kd was determined as 62 nM, the koff is 0.033 s⁻¹ and the kon was 540000 M⁻¹ s⁻¹.

B7: GST-CD43 (domain or fragment)
chain: FDSLTVRTSKETDVVNFDDIASSENLLHLTANRPKMPGRRLPG
notes: CD2AP, human, residues 461–503; cloned into pGEX-6P-1
B7: in test [1], the Kd came to 260 nM and the koff was above 0.1 s⁻¹.

B8: CD23, human CD2AP (485–507) (peptide)
peptide: NLLHLTANRPKMPGRRLPGRFNG
notes: CD2AP, human, residues 485–507; also called CARMIL peptide; source: synthetic peptide, Invitrogen
B8: the binding result in test [3] and in test [4] was “binds” each time.

B9: CA21, mouse CARMIL (residues 985–1005) (peptide)
peptide: RLEHFTKLRPKRNKKQQPTQA
notes: CARMIL, mouse, residues 985–1005; also called CARMIL peptide; source: synthetic peptide, Invitrogen
Take B9: the binding result in test [3] and in test [4] was “binds” in each case.

B10: CK23, human CKIP-1 (148–70) (peptide)
peptide: SYLAHPTRDRAKIQHSRRPPTRG
notes: CKIP-1, human, residues printed as 148–70, read as 148–170 (23 residues); also called CARMIL peptide; source: synthetic peptide, Invitrogen
With B10, the binding result in test [3] and in test [4] was “binds” each time.
